Substance: human follicle—stimulating hormone [FSH]
- estimated FSH activity, in vivo biological assay in rat: 6578 IU per mg protein
- FSH activity in the lower sample after centrifugation, in vivo test (rat): undetectable
- FSH activity in the upper sample after centrifugation, in vivo test (rat): 97%

From patent publication US20050250935A1 (priority 2004, published 2005)
